Test results from patent US20030059827A1, “Engineered protein binding domains and methods and systems for their design and use” (priority 2001, published 2003).

Biological target: Biotin-GG-KQTSV
Experiment: micro-calorimetry (isothermal titration)

B1: wild-type PDZ (PDZ3 of PSD095) domain, Q62108 302-402 (protein, mouse, UniProt Q62108 302-402, looked up)
chain: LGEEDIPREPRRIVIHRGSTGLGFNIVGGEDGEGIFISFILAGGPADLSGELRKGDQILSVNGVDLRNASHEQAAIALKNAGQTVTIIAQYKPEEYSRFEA
Ka: 25700 M⁻¹
Kd: 39 µM
